Measured values published in publication PMC7980224.

Columns and labels:
Assay in all cases: EMSA
Conditions in all cases: apparent Kd; RNA of Fig S1f not named, assumed U1; EMSA: 10 nM labeled RNA, 2-fold protein dilutions up to 10 uM, 2 h on ice, 1% TBE-agarose, 50 V, 4 C; binding buffer not stated (protein elution buffer 150 mM …)
[1] = system: INTS10;INTS13;INTS14 (human?;human?;human?)
[2] = system: INTS4;INTS9;INTS11 (human?;human?;human?)
INTS5;INTS8 = system: INTS5;INTS8

U1 pre-snRNA stem-loop 4 with 3' box
Kd [1]: 780 nM | Kd [2]: 820 nM | Kd (INTS5;INTS8): 3100 nM
